Assay results from publication PMC5090064, “Coordinated regulation of the ESCRT-III component CHMP4C by the chromosomal passenger complex and centralspindlin during cytokinesis” (Open Biology, 2016).

B1: CHMP4C (purified recombinant, full-length) (natural protein, human, UniProt Q96CF2 1-233, looked up)
chain: MSKLGKFFKGGGSSKSRAAPSPQEALVRLRETEEMLGKKQEYLENRIQREIALAKKHGTQNKRAALQALKRKKRFEKQLTQIDGTLSTIEFQREALENSHTNTEVLRNMGFAAKAMKSVHENMDLNKIDDLMQEITEQQDIAQEISEAFSQRVGFGDDFDEDELMAELEELEQEELNKKMTNIRLPNVPSSSLPAQPNRKPGMSSTARRSRAASSQRAEEEDDDIKQLAAWAT
notes: CHMP4C, human, full-length ORF cloned into pET-His6-msfGFP as a TEV-cleavable His-tagged protein; also called His6-GFP::CHMP4C; purified CHMP4C; source: E. coli BL21 Gold, purified (Ni-NTA, TEV cleavage, Superdex 200); not shown: His6, N-terminal, cleaved

Experiments:
MKLP1 = MKLP1 (UniProt Q02241); assay: GFP-Trap pull-down, Flag western blot
[1] = biological target: T1, CPC mini-complex (Survivin full-length, Borealin full-length and INCENP 1–57) (UniProt Q53HL2 1-280; O15392 1-142; Q9NQS7 1-57); assay: atomic force microscopy; purified proteins on mica surfaces without lipid bilayers, imaged under fluid at room temperature; conditions: both partners purified
T1 construct: Borealin, full-length, TEV-cleavable His-tagged, pETM vector; Survivin, full-length, 3C-cleavable GFP-tagged, pRSET vector; INCENP residues 1–57 (methods; the results say the first 58 amino acids), untagged, pMCNcs vector; Results call the INCENP piece INCENP 1–58, methods 1–57; also called mini-CPC; copies: + +
T1 sequence (Q53HL2 whole entry, chain 1 of 3, the tested form may be a part): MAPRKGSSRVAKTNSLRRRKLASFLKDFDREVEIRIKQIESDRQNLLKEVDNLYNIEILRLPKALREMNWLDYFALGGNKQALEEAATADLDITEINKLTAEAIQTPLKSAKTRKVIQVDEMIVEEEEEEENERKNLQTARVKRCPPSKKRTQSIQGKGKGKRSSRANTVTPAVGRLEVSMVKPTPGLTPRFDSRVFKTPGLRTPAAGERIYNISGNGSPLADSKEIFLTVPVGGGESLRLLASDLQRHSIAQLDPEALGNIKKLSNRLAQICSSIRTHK
T1 sequence (O15392 whole entry, chain 2 of 3, the tested form may be a part): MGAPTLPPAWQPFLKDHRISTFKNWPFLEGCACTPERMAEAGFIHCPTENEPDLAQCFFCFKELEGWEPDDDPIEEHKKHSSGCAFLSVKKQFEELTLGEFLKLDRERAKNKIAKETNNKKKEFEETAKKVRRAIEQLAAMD
T1 sequence (Q9NQS7 1-57, chain 3 of 3): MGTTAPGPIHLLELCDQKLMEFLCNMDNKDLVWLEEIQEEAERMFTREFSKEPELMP

Molecule	binding against the reference (MKLP1; reference: S210A, sites S214,S215)	binding against the reference (MKLP1; reference: wild type, sites S210,S214,S215)	binding result [1]
CHMP4C (from UniProt Q96CF2) StripleA (S210A, S214A, S215A)	stronger	stronger	
B1			binds
